Reference: the RNAGym collection of RNA variant scans (doi:10.1073/pnas.2313332121)

B1: TPR t1 (parent)
chain: GACCAAUCUGCCCUCAGAGCUCGAGAACAUCUUCGGAUGCAGAGGAGGCAGGCUUCGGUGGCGCGAUAGCGCCAACGUCCUCAACCUCCAAUGCAUCCCACCACAUGAUGAUGCCUGAAGAGCCUUGGUUUUUUG

Variants of: B1
Experiment: polymerase ribozyme fitness, log enrichment relative to wild type (log ratio); higher = more active; in vitro selection for triplet polymerase activity
Summary of the method: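 The heterodimeric triplet polymerase ribozyme's subunits were each mutagenized into PCR-built libraries and transcribed. Every library was selected once, in triplicate, by annealing with a biotinylated primer, the partner subunit and triplets, incubating frozen at −7 °C, gel-excising extended constructs, capturing on streptavidin beads and running RT-PCR. Input and output libraries were Illumina-sequenced, with genotypes kept only at ≥10 input reads and ≥1 read per output. Fitness, from inverse-variance-weighted replicate averages, is the base-2 logarithm of genotype enrichment over wild-type enrichment.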

| Variant | polymerase ribozyme fitness (log ratio) |
| --- | --- |
| C20A C56A C72G A90G | -4.82 |
| C22A A74G C97U | -4.56 |
| U21G C31U U78C C85A U112G | -5.44 |
| C20A C98G | -5.84 |
| C20A C53U C72G U126G | -3.99 |
| C22A A27C C56U C114A U125A | -4.58 |
| C20U A27C A84U C123A | -5.42 |
| C20U C85A | -3.94 |
| G19C G57A G69U C85G | -4.01 |
| C20G U32A C53G U54C G57U C97G G113A | -6.61 |
| G19U A41U G71A | -5.44 |
| C20A C40A C72U C73U | -4.3 |
| G19C C70U | -2.55 |
| U21A G45A U59G G71A | -4.25 |
| U21C C28U C101G G110C | -5.65 |
| C20G C40U | -2.61 |
| C20A U32C C56U G57U G60U C62G | -5.9 |
| C20U C49U C56G U78G U81A C86U U133G | -3.51 |
| G19C A41C C70G G120U | -6.52 |
| C20A G45U C53G G63C C88U A111U U125G | -5.87 |
| U21C U92G U96G A100C C124G | -5.43 |
| G19A G77C | -2.48 |
| U21C G35C C73G A83C | -5.87 |
| C20G C62U | -3.29 |

| Variant | polymerase ribozyme fitness (log ratio) |
| --- | --- |
| U21A G71A C88U G93A | -2.14 |
| U21A C40G U125A | -1.07 |
| C20U C73G C114G | -1.71 |
| G19U A74U G113A | -2.19 |
| C20A U21A C73G | -4.94 |
| G19U A105U U106A G113C | -0.75 |
| G19U U55G C70U | -3.42 |
| U21G G60A G63C U78A C115U A119U U130A | -4.71 |
| C20A C89A | -3.94 |
| G19U U54G A68G C70G G117C | -5.56 |
| C20U A26C G42U U54G C64U G122A C124A | -6.48 |
| C20A C28G C70G A83U C99U G113U | -6.88 |
| C20U G45U G52A C73G C94U C104U | -4.54 |
| C20G G71C | -5.08 |
| U21A G39U | -1.5 |
| C20A C34A A41C U109A | -4.4 |
| U21C A84C C124G U131C | 1.43 |
| U21C A41U G120A | -0.65 |
| C20U A27G C72A C82U A84G U116C | -7.5 |
| U21C G42A U109A G117C | -7.38 |
| G19U A43U G60C C82G | -3.71 |
| G19C C72A C124A U129G | -0.719 |
| C20U G48U | -2.05 |
| G19A C73U | -2.61 |

| Variant | polymerase ribozyme fitness (log ratio) |
| --- | --- |
| C20U G39U C89U A119U U130G | -4.97 |
| C20A G23A G36A G48A G113A | -7.55 |
| C20U G69C C94U | -2.8 |
| U21G G47A C114A C123G U125A | -1.52 |
| G19C G63A U87C | -3.24 |
| C20A C114A | -2.56 |
| U21C A37G C62A G117A | -3.01 |
| G19C C22U A46C C114U | -5.79 |
| U21G C53U C123G | 0.377 |
| C20U G69U | -0.346 |
| U21C A41G G44A C56U C98U U112A | -1.55 |
| C20A C40U U59A G117U G128C | -4.96 |
| C20G G93C | -4.4 |
| U21A U38A G42A G44A U55G | -2.99 |
| G19U C123A | -2.59 |
| G19A G69U | -1.71 |
| G19A G69A | -4.57 |
| C20A G45U C53G C88U A111U U125G | -4.56 |
| U21A G135U | -0.915 |
| C20A G71U | -2.48 |
| U21G C56U | -1.08 |
| G19A G63A A111G | -1.39 |
| C20A A84C C88A U92G C114A | -4.5 |
| C20U U78C C124G | 0.066 |

| Variant | polymerase ribozyme fitness (log ratio) |
| --- | --- |
| G19A U109A | -5.74 |
| C22A G44C | -4.8 |
| C20G G35U A95C G117U | -4.02 |
| G19C G71U G120U G122A C123U | -3.78 |
| C20U G52U G61U U87C | -1.96 |
| C20A U38A G48A C104A A121U | -6.26 |
| C20U C73U G110U G120U A121G | -3 |
| C20G U38G C76G | -5.6 |
| G19A U96A C114A G127U | -3.48 |
| C20U G93U | -3.35 |
| C20G G71A A83C | -5.59 |
| C20A U32A C70U G93C | -6.8 |
| G19A U38C G63U C114A A121G | -4.24 |
| C20U U32G | -6.33 |
| C20U A83G C101A G117U | -5.42 |
| U21A G63C | -0.995 |
| C20U U112C | 0.258 |
| C20U U112A | 0.887 |
| U21A C62U U92C U116C A119G | 0.3 |
| G19U G48U C79A C85A G120C U130C | -5.41 |
| U21C A27G C123G | -0.817 |
| G19U C73A C80U U112C C114A U126A | -1.24 |
| C20U U81C | -1.54 |
| G19A C101U | -3.3 |

| Variant | polymerase ribozyme fitness (log ratio) |
| --- | --- |
| C20U C64U C104A G107C G128A | -6.14 |
| C20A G63C | -3.31 |
| C22A C31G G71U U92C G93A C114U | -6.77 |
| G19C G36A G48A C82U C124A | -3.64 |
| U21A A50C | -0.532 |
| C20U U33A | -5.51 |
| C20G C76U | -3.75 |
| U21G C56U A111G U112G | -0.871 |
| G19A G77U U81A C114A | -1.67 |
| G19A G60A C114A | -1.62 |
| G19U C53G | -2.76 |
| U21G G23U A27G A83C U112G | -7.42 |
| U21A C53G C64U U106C | -0.936 |
| C20U U38G C72U C102U | -5.01 |
| G19A C114A | -1.55 |
| G19C C40U G48U G110C | -6.52 |
| C20U U129A | -2.67 |
| C20A G36U G77U U116C | -5.13 |
| C22A C34G | -6.64 |
| U21G A24G | -2.02 |
| C22A C76U | -4.72 |
| C20A U54A U131G | -3.27 |
| G19A G61C | -4.27 |
| C20U C72U U78A A111G C123G G135C | -3.01 |

| Variant | polymerase ribozyme fitness (log ratio) |
| --- | --- |
| C20U G61A C124A G135C | 0.689 |
| C20U G77U | -1.15 |
| C20A C64U U78C U96A C102G C114A | -6.83 |
| U21A C56G C73A C99G G120A U131C | -7.97 |
| C20U C28A | -3.79 |
| U21G C73U | -1.84 |
| G19A U54C C73G C82G C114G | -4.42 |
| C20U C72A | -1.55 |
| C20U C72G | -1.56 |
| C20G C99G G110C | -7.02 |
| C20U A37G C102A | -3.43 |
| C20A G60A | -2.83 |
| U21G G36A | -2.46 |
| C20U U30A G39C C53U C56U G60C U92C G117U A119G | -6.79 |
| U21G A37C G44U | -3.59 |
| C20A A46U | -4.55 |
| C22A G36A C56U | -5.8 |
| G19U G45U A111C | -4.74 |
| U21A A29C | -3.14 |
| C20A G120C | -1.75 |
| C20A G120U | -2.44 |
| C20U G71A | -1.94 |
| C20G A50U U78C U96G U112A A118G | -6.42 |
| U21C C22A C101G G110A | -6.05 |

| Variant | polymerase ribozyme fitness (log ratio) |
| --- | --- |
| G19C G45A U78C C82G U112C | -1.42 |
| U21A C53G U54G U87A | -4.55 |
| C20U G36U G135U | -2.95 |
| C20G C40A A66G G71A G93U U112C | -6.06 |
| C20G | -3.76 |
| C20U | -1.26 |
| C20A | -2.6 |
| G19U A41C G48U G120U | -4.33 |
| C22A C31G G61A C102A C123G | -7.56 |
| U21A G117U | -1.55 |
| U21G A41U G60C C80U U92C C97A A121U | -8.22 |
| U21C C28U C72U | -1.89 |
| C20A G63A C94A U112A | -2.57 |
| U21C C56A C70U G110U | -6.01 |
| U21G G61U G120U C123A | -1.78 |
| C20G G60A | -3.55 |
| U21A C53U C85U | -2.21 |
| C20A A84G C86A G128U U130C | -3.64 |
| U21A A27C U78G A84U C114A | -6.87 |
| G19C C101A G120U C124A G135C | -3.1 |
| C22A A41U A90U A121G | -5.71 |
| G19A U32A A84U | -6.42 |
| C22A A29G | -4.8 |
